Measurements reported in article PMC4414810.

Tests used:
Test in all cases: fluorescence polarisation
[1] = biological target: fluorescently-labeled, fully-modified HalA2 peptide (Bacillus halodurans C-125)
[2] = biological target: fluorescein-labeled HalA2 (Bacillus halodurans C-125)
[3] = biological target: HalM2 (haloduracin lanthipeptide synthetase) (Bacillus halodurans C-125)
[4] = biological target: 5-FAM labeled HalA2 core peptide (Bacillus halodurans C-125)

| Kd [1] [µM] | Kd [2] [nM] | IC50 [3] [µM] | Ki [3] [µM] | Kd [4] [µM] | Substance |
| --- | --- | --- | --- | --- | --- |
| 10.4 | 1900 |  |  |  | HalM2 (haloduracin lanthipeptide synthetase) (enzyme) |
|  |  | 5.6 | 5.5 |  | unlabeled HalA2 leader peptide |
|  |  | 1.2 | 1.2 |  | unlabeled HalA2 peptide |
|  |  |  |  | 85 | HalCE2 (HalA2 leader peptide attached to the N-terminus of HalM2 through a (GS)15 linker) (enzyme) |
